Test [1] concerns the target T1, human IL-2 receptor (IL-2R) on human PBMC subsets (human, UniProt P14784 27-551; P31785 23-369).
T1 sequence 1: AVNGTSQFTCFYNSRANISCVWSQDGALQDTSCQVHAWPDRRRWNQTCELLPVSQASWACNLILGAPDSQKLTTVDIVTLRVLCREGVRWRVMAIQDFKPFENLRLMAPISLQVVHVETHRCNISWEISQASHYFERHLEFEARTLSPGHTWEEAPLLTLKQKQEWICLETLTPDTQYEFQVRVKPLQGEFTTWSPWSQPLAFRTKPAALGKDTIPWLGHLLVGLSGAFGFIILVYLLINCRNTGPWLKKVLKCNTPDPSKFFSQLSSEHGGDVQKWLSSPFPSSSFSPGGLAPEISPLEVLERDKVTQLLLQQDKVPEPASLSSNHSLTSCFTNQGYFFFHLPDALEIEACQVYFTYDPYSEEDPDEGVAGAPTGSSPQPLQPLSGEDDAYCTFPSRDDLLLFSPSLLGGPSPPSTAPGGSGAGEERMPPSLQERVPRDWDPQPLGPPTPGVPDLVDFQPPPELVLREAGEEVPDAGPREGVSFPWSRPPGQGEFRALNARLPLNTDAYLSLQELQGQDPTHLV
T1 sequence 2: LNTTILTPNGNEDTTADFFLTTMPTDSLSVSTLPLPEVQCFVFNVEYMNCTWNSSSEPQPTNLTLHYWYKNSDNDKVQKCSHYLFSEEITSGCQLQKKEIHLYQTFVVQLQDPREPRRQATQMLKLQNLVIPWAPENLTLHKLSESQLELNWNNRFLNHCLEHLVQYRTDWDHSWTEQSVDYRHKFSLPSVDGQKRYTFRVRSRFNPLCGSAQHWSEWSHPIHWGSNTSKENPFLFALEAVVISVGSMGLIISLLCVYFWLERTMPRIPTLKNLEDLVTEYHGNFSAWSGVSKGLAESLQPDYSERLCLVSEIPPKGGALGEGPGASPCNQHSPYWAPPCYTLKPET
Put plainly: cell-based or functional assay.

For test [2], the target named is T1, human IL-2 receptor (IL-2R) on human …. The test can be described thus: cell-based or functional assay. The source holds these as a separate data set.
In test [3] the target is T2, cynomolgus monkey IL-2 receptor (IL-2R) on cyno PBMC subsets (cynomolgus monkey, UniProt Q38J85 27-551; A0A2K5VGJ6 23-369).
T2 sequence (looked up) 1: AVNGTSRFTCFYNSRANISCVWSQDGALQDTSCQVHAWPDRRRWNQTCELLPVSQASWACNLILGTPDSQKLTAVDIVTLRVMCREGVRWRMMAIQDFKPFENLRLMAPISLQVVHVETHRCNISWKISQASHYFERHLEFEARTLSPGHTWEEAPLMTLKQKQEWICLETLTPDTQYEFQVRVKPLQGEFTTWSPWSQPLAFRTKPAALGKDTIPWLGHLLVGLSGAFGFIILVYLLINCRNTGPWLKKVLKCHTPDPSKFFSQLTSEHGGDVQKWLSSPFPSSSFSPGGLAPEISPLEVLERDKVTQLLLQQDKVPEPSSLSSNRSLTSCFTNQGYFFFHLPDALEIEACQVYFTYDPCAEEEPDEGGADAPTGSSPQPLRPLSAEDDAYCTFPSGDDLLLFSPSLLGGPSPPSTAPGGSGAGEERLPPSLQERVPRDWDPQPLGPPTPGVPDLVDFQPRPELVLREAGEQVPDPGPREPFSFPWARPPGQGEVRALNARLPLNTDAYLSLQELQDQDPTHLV
T2 sequence (looked up) 2: T1 sequence 2 with T14A, A16T, T22S, H141R, T228S, A326P
The test can be described thus: cell-based or functional assay.

Test [4] has as its target T1, human IL-2 receptor (IL-2R) on human …. Put plainly: cell-based or functional assay. The source holds these as a separate data set.
The target of test [5] is T2, cynomolgus monkey IL-2 receptor (IL-2R) …. The test can be described thus: cell-based or functional assay. The source holds these as a separate data set.
Test [6] has as its target T1, human IL-2 receptor (IL-2R) on human …. The test can be described thus: cell-based or functional assay. The source holds these as a separate data set.
Test [7] has the same target. Put plainly: Flow cytometry on human PBMCs gated on CD4+ T-cells; detection with goat F(ab')2 anti-human IgG-PE; gMFI as fold over background. As to the method:
(§1) All washes and dilutions of cells, antibodies, and reagents were performed using flow buffer (1×PBS, 1% BSA, 0.1% NaN3, pH 7.4). All incubations were performed at 4° C. or on ice. Freshly thawed PBMCs were seeded at 100,000 cells/well in a 96-well round bottom plate (Corning) and incubated for 30 minutes with serially diluted test articles in a total volume of 50 μL. Cells were washed twice with 200 μL flow buffer and subsequently stained with a 0.625 μg/mL Goat F (ab′) 2 Anti-Human IgG-PE (Southern Biotech) secondary detection antibody. Fluorescently conjugated anti-CD3 (OKT3), CD4 (OKT4), CD8 (RPA-T8), CD25 (M-A251), CD127 (A019D5), and CD56 (HCD56) antibodies (BioLegend) were also included at 1:20 dilution to enable the characterization of T-cell and NK cell populations. Following a 30-minute incubation, and 2 more washes, the cells were resuspended in a final volume of 120 μL of flow buffer containing 7-AAD viability dye. The cells were analyzed on a BD FACSCelesta™, maximum events were collected, and geometric mean fluorescence intensity was plotted as a fold-over-background (cells incubated with secondary detection antibody and cell lineage marker stains only).
(§2) Cell binding was determined by flow cytometry and reported as geometric mean fluorescent intensity (gMFI) over the gMFI of cells stained only with secondary detection antibody.
For orientation: Flow cytometry measures light scatter and fluorescence of single cells or particles in a stream.

Test [8] shares this target. Put plainly: Flow cytometry on human PBMCs gated on CD8+ T-cells; detection with goat F(ab')2 anti-human IgG-PE; gMFI as fold over background. The procedure: as §1, §2
For test [9], the target named is T2, cynomolgus monkey IL-2 receptor (IL-2R) …. The test can be described thus: Flow cytometry on cynomolgus PBMCs gated on CD3-CD159a+ NK cells; detection with anti-human IgG-PE; gMFI as fold over background.
The target is the same in test [10]. Put plainly: Flow cytometry on cynomolgus PBMCs gated on CD4+CD25+CD127lo T-regs; detection with anti-human IgG-PE; gMFI as fold over background.
Test [11] has as its target T1, human IL-2 receptor (IL-2R) on human …. The test can be described thus: Flow cytometry on human PBMCs gated on CD3-CD56+ NK cells; detection with goat F(ab')2 anti-human IgG-PE; gMFI as fold over background. As to the method:
as §1, §2

The target is the same in test [12]. The test can be described thus: Flow cytometry on human PBMCs gated on CD4+CD25+CD127lo T-regs; detection with goat F(ab')2 anti-human IgG-PE; gMFI as fold over background. As to the method: as §1, §2

Substitutions are numbered along the chain they refer to. Numbers in names are those of the source.

B1: HCAb1 (bispecific antibody, IgG1)
heavy 1: not shown
heavy 2: QVQLVESGGGLVKPGGSLRLSCAASGFTFSDYYMSWIRQAPGKGLEWVSYISSSGSTIYYADSVKGRFTISRDNAKNSLYLQMNSLRAEDTAVYYCARGDAVSITGDYRGQGTLVTVSSGGGGDKTHTCPPCPAPELLGGPSVFLFPPKPKDTLMISRTPEVTCVVVDVSHEDPEVKFNWYVDGVEVHNAKTKPCEEQYGSTYRCVSVLTVLHQDWLNGKEYKCKVSNKALPAPIEKTISKAKGQPREPQVYTLPPSRKEMTKNQVSLTCLVKGFYPSDIAVEWESNGQPENNYKTTPPVLKSDGSFFLYSKLTVDKSRWQQGNVFSCSVMHEALHNHYTQKSLSLSPGK
notes: Heavy-chain antibody without light chains, made of two different heavy chains; The IgG1-derived Fc carries SEFL2.2 mutations (R292C, N297G, V302C) and charge-pair substitutions; also called anti-IL2RBG heavy-chain antibody
As for B1, in test [1], the “pSTAT5 (Human) EC50 [nM], CD4^+ T cells” value was 22.9 nM; the “pSTAT5 (Human) EC50 [nM], CD8^+ T cells” value worked out at 15.5 nM; the “pSTAT5 (Human) EC50 [nM], NK cells” value was found to be 8.77 nM; the “pSTAT5 (Human) EC50 [nM], T-regs” value stood at 13.1 nM. Moreover, in test [2], the “Ki67 (Human) EC50 [nM], CD4^+ T cells” value was found to be 13.2 nM; the “Ki67 (Human) EC50 [nM], CD8^+ T cells” value came out at 5.17 nM; the “Ki67 (Human) EC50 [nM], NK cells” value stood at 7.34 nM; the “Ki67 (Human) EC50 [nM], T-regs” value is 0.81 nM. In test [3], the “Ki67 (Cyno) EC50 [nM], CD4^+ T cells” value is 14.7 nM; the “Ki67 (Cyno) EC50 [nM], CD8^+ T cells” value came to 14.8 nM; the “Ki67 (Cyno) EC50 [nM], NK cells” value is 5.97 nM; the “Ki67 (Cyno) EC50 [nM], T-regs” value was determined as 1.25 nM. In addition, in test [4], the “pSTAT5 (Human) EC50 [nM], CD4^+ T-cell” value is 34.9 nM; the “pSTAT5 (Human) EC50 [nM], CD4^+CD25^+ T-regs” value was determined as 10.7 nM; the “pSTAT5 (Human) EC50 [nM], CD8^+ T-cell” value is 21.5 nM. In test [5], the “pSTAT5 (Cyno) EC50 [nM], CD4^+ T-cell” value came to 7.72 nM; the “pSTAT5 (Cyno) EC50 [nM], CD4^+CD25^+ T-regs” value was determined as 5.37 nM; the “pSTAT5 (Cyno) EC50 [nM], CD8^+ T-cell” value stood at 3.31 nM. Also, in test [6], the “Ki67 (Human) EC50 [nM], CD4^+ T-cell” value is 23.7 nM; the “Ki67 (Human) EC50 [nM], CD4^+CD25^+ T-regs” value was found to be 9.26 nM; the “Ki67 (Human) EC50 [nM], CD8^+ T-cell” value turned out to be 25.1 nM. Moreover, in [7], the EC50 (read off the curve) (in general, the concentration that produces a half-maximal response) was approximately 30 nM. The “EC50 (read off the curve)” value in [8] was approximately 20 nM. The “EC50 (read off the curve)” value in test [9] is approximately 2 nM. Further, the “EC50 (read off the curve)” value in test [10] was approximately 8 nM. In addition, in test [11], the 50% effective concentration (EC50 (read off the curve)) is approximately 2 nM. Besides, the “EC50 (read off the curve)” value in test [12] is approximately 10 nM.

B2: HCAb2 (bispecific antibody, human IgG4 S228P, F234A L235A)
heavy 1: QVQLQESSPGLVKPSETLSLTCTVSGGSISSSNWWSWVRQPPGKGLEWIGEISHSGSTNYNPSLKSRVTISVDKSKNQFSLRLSSVTAADTAVYFCGRGSWELTDAFDIRGQGTLVTVSSESKYGPPCPPCPAPEAAGGPSVFLFPPKPKDTLMISRTPEVTCVVVDVSQEDPEVQFNWYVDGVEVHNAKTKPREEQFNSTYRVVSVLTVLHQDWLNGKEYKCKVSNKGLPSSIEKTISKAKGQPREPQVYTLPPSQEEMTKNQVSLSCAVKGFYPSDIAVEWESNGQPENNYKTTPPVLDSDGSFFLVSRLTVDKSRWQEGNVFSCSVMHEALHNHYTQKSLSLSLGK
heavy 2: QVQLVESGGGLVKPGGSLRLSCAASGFTFSDYYMSWIRQAPGKGLEWVSYISSSGSTIYYADSVKGRFTISRDNAKNSLYLQMNSLRAEDTAVYYCARGDAVSITGDYRGQGTLVTVSSESKYGPPCPPCPAPEAAGGPSVFLFPPKPKDTLMISRTPEVTCVVVDVSQEDPEVQFNWYVDGVEVHNAKTKPREEQFNSTYRVVSVLTVLHQDWLNGKEYKCKVSNKGLPSSIEKTISKAKGQPREPQVYTLPPSQEEMTKNQVSLWCLVKGFYPSDIAVEWESNGQPENNYKTTPPVLDSDGSFFLYSRLTVDKSRWQEGNVFSCSVMHEALHNHYTQKSLSLSLGK
As for B2, in test [4], the “pSTAT5 (Human) EC50 [nM], CD4^+ T-cell” value was determined as 44.6 nM; the “pSTAT5 (Human) EC50 [nM], CD4^+CD25^+ T-regs” value stood at 13.2 nM; the “pSTAT5 (Human) EC50 [nM], CD8^+ T-cell” value was found to be 24 nM. Moreover, in test [5], the “pSTAT5 (Cyno) EC50 [nM], CD4^+ T-cell” value was found to be 9.36 nM; the “pSTAT5 (Cyno) EC50 [nM], CD4^+CD25^+ T-regs” value came out at 4.29 nM; the “pSTAT5 (Cyno) EC50 [nM], CD8^+ T-cell” value was 3.13 nM. For the same molecule, in test [6], the “Ki67 (Human) EC50 [nM], CD4^+ T-cell” value was 23.9 nM; the “Ki67 (Human) EC50 [nM], CD4^+CD25^+ T-regs” value stood at 14.6 nM; the “Ki67 (Human) EC50 [nM], CD8^+ T-cell” value was determined as 36.5 nM.

Values taken from patent US20250313641A1 (Amgen, published 2025).
